Source: patent US20210386836

How the values were obtained:
[1] = molecular target: T1, C-Reactive protein, P02741
T1 chain: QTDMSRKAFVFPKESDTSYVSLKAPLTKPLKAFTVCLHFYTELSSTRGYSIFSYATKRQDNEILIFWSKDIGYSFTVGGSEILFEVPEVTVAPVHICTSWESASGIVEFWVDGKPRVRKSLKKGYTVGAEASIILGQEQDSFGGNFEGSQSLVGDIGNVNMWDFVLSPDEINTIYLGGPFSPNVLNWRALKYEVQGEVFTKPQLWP

[2] = molecular target: IL-10
[3] = molecular target: mouse C3a, P01027
[4] = molecular target: T2, C4-Binding protein, P04003
T2 chain 1: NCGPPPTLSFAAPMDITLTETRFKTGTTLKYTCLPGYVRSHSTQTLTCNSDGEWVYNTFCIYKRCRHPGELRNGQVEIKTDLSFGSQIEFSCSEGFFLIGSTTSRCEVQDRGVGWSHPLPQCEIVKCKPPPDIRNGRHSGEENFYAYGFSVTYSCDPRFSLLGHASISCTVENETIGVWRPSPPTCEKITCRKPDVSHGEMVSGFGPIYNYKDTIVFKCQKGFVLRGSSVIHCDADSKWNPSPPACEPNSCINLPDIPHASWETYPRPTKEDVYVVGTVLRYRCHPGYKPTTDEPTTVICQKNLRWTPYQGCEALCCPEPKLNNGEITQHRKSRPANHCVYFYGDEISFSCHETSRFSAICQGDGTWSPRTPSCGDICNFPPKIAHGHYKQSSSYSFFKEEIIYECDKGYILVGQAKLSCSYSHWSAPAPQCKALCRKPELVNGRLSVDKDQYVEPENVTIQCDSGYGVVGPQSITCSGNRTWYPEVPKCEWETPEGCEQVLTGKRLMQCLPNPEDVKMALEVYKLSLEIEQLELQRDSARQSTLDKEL
T2 chain 2: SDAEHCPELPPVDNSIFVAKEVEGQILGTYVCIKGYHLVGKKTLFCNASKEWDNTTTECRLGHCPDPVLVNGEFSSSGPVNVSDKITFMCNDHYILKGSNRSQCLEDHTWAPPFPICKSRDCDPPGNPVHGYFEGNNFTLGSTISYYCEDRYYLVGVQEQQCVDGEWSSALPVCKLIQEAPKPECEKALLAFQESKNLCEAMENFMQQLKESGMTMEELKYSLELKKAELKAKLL

[5] = molecular target: Factor XIII
[6] = molecular target: C3, P01024
[7] = molecular target: T3, C1 inhibitor, P05155
T3 chain: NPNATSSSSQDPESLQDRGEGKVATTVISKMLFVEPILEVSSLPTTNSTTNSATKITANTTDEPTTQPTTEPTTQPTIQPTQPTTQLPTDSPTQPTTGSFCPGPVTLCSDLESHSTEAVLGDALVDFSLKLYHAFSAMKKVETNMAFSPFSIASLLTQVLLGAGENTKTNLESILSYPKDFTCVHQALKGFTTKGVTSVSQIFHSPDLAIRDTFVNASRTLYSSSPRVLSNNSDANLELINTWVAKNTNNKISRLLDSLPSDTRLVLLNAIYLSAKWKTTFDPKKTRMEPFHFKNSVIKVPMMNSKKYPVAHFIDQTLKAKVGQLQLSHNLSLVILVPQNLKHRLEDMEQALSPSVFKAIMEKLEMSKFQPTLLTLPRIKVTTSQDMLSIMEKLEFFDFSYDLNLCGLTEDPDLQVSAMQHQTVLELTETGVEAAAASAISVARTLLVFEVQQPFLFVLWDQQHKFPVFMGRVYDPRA

[8] = molecular target: T4, C2a, P06681
T4 chain: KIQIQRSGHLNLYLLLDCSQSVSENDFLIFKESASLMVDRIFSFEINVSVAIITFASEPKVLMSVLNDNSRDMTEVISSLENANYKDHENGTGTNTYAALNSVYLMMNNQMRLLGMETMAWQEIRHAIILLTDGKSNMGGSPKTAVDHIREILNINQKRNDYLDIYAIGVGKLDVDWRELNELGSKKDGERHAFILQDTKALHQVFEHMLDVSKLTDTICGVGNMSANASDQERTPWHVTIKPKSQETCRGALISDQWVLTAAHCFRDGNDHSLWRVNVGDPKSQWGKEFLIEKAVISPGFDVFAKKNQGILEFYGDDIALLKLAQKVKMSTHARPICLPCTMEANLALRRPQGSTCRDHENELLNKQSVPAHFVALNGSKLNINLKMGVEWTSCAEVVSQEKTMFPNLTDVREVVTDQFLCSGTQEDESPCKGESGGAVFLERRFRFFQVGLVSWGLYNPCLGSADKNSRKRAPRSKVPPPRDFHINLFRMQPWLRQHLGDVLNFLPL

[9] = molecular target: TNF-α
[10] = molecular target: BSA, P02769
[11] = molecular target: HSA, P02768
[12] = molecular target: C3a, P01024
[13] = molecular target: T5, human C5a, P01031
T5 chain: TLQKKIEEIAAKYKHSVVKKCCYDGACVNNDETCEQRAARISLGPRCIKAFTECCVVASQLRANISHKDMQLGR

[14] = molecular target: Factor XI
[15] = molecular target: IL-17
[16] = molecular target: Factor B, P00751
[17] = molecular target: C4
[18] = molecular target: Properidin, P27918
Properidin, P27918, sequence (P27918 28-469): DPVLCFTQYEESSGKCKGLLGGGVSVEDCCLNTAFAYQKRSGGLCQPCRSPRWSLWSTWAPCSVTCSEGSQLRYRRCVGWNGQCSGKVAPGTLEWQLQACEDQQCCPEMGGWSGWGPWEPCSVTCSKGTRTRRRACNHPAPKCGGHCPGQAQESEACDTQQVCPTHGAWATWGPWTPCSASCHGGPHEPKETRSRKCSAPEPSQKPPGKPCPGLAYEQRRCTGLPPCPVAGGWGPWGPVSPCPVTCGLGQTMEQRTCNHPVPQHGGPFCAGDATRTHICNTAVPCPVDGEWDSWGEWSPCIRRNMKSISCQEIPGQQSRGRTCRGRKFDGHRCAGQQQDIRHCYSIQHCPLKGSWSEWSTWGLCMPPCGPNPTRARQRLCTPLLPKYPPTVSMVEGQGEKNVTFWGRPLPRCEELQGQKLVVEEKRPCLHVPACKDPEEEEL

BSA, P02769, sequence (P02769 25-607): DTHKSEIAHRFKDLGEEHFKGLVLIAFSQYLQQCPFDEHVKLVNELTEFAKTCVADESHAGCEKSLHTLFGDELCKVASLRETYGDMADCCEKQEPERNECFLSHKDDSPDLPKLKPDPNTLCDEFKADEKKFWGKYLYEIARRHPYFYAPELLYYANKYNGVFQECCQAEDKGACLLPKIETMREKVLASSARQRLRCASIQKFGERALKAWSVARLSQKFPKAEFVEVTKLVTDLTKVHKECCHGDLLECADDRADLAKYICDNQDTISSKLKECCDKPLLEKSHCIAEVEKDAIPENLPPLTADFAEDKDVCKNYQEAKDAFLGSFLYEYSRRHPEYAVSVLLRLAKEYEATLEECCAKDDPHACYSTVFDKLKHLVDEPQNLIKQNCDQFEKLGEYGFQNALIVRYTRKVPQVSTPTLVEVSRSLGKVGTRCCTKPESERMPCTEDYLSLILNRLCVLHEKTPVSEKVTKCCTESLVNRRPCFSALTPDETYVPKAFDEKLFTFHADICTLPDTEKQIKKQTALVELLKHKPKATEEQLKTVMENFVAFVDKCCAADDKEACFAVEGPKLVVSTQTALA
mouse C3a, P01027, sequence (P01027 671-748): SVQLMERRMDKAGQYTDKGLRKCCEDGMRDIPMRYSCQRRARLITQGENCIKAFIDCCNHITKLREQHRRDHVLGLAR
Factor B, P00751, sequence (P00751 26-764): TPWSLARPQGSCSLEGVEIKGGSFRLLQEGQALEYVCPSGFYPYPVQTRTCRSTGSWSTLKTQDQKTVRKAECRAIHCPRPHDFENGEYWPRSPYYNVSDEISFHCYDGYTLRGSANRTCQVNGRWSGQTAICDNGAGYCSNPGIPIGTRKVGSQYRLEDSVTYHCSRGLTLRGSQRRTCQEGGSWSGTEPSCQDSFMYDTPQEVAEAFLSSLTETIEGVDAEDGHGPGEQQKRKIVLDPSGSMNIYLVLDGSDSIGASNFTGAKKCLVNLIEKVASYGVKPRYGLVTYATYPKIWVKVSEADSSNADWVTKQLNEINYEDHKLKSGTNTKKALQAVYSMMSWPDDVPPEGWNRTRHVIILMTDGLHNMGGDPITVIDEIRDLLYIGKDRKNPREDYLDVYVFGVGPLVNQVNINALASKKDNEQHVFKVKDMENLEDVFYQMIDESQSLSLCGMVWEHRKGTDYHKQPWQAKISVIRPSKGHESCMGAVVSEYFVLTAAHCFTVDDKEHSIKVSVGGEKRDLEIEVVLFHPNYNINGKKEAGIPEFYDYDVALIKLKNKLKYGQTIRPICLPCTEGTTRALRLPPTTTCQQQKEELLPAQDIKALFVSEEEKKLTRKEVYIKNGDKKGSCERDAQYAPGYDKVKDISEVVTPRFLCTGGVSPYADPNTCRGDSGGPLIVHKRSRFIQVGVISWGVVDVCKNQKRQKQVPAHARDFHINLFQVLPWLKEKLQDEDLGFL

B1: PrtI(ProB) (protein)
chain: AIGETSVQNVKVSVAKNESDSQKFNNSQNLEQKTPQAAAANQNGSQVQNDHTETQLQNQQTTQSQVTQAHTEENNASSIPEPANQADHVKGNVQSAWDQGYKGQNTVVAVIDSGADTSHKDFQTMPSNPKLKQEDVQSKIDQQGYGKYVNEKFPYVYNYADRDNDYIKSDDNNQXNDSPHGQHVSGIIAADGHPEGDQQYVVGVAPEAQLMQLRVFGQFSDEKTDDVARAIYDATNLGADVIQMSLGQGVADQQLTNIEQKAVQYAIDHGVFVSISASNNGNSASVDNPSKVTAKGYGSGSEAGNYEPLNSGTVANPGASKNALTVAAETSGTGKDSDMASFSSWGPLSDFSLKPDLSAPGYQVVSTVNDNQYQTMSGTSMAGPFAAGSAALVIQRLKQTNPELKGAELVAATKALLMNSAKVQTQNGYTTPVSPRRQGAGQIDVGAATANPVYVTAADGTSSLSLRQVDEKTTFTLTFHNLTDQEQSYSFNDLGGGYTEQRDPDSGVFHEVQLAGAHVNGVGNFTLAPKEVKDLQYTLDLQGLNKNQPVEGWLHFTNDKDKSTVVVPYLAYYGDLTSENVFDQNANEEKPDIQGNRFVNENNYPLGVTDQESLKQLVNVDSDYNWQEVAKLYESGKVAFSPNDDHQSDLIKPYAYLKQNVKDLKVEILDAKGNVVRVVSDVQGVDKSYDESGVTKDASLSVSMRDNPDAFEWDGKVYDTKTGQMVTAPDGQYTYRFVATLWNEGPNQKQTADFPVVVDTQAPSLSVKYDSATHTLSGNYEDKGAGFTDYSYVTVQVNDKVFGYKLNEGESGFDNSEKTKGHFNFTLSSDALDALSGSLNKVSVTLSDVANNTTVKTVDVPAVKDQPAVSVWNATEGVEFNKNSKDYNKENDTYTLYGSAAQDFYLNGALVQVRDGKYEVPVKTTTQDLVFSTDQAGKNVLKSFTTFTPKAFFNWQNVDGFDGNFGVNIYSVKTNDPNNAVVQAAVPLGKNVKAYAQDYFTGEVYKGQVENGVATFHVHTSINQGEDGIFKRALLTGWSEVDGPAYNDKQVTSKAGVASSNHLGVYYTTDKVNRKVYTDRADLGVDVQDEAADLSSFGPTAYPGHALADLTTRTDPNPAIHFDYLNDNDTTRFGQNAVTDGYYDSVTKKFTVTGHVDPEVKSLTVLGDSSDENAPQNQVKLGKDGKFSFSFTTENVGQRPVAYIYTDQNGQKVRGTLNVVLDTVAPTLNVDQVNGNELEVKTNNPLFKLSGVVNDNLDGYRLYVNGNNIYREFLNSGYNKLAGLNTDGTDVNPYGPHNFEESFNLNDDNNQPTTHVFTIYVVDQVGNKVEKKIAVNYDPDYVA
modifications: not fully specified; X: residue not identified in the source
**Q.** Which results are given for B1?
**A.** proteolytic activity (SDS-PAGE) [1]: None of the complement proteins tested show evidence of breakdown; protein cleavage assay (SDS-PAGE) [2]: has activities against; protein cleavage assay (SDS-PAGE) [3]: has activities against; proteolytic activity (SDS-PAGE) [4]: None of the complement proteins tested show evidence of breakdown; digestion (SDS-PAGE) [5]: did not digest; proteolytic activity (SDS-PAGE) [6]: None of the complement proteins tested show evidence of breakdown; proteolytic activity (SDS-PAGE) [7]: None of the complement proteins tested show evidence of breakdown; proteolytic activity (SDS-PAGE) [8]: None of the complement proteins tested show evidence of breakdown; protein cleavage assay (SDS-PAGE) [9]: has activities against; digestion (SDS-PAGE) [10]: did not digest; digestion (SDS-PAGE) [11]: did not digest; protein cleavage assay (SDS-PAGE) [12]: has activities against; proteolytic activity (control of enzyme stock) [12]: shown to be active against C3a; protein cleavage assay (SDS-PAGE) [13]: has activities against; digestion (SDS-PAGE) [14]: did not digest; protein cleavage assay (SDS-PAGE) [15]: has activities against; proteolytic activity (SDS-PAGE) [16]: None of the complement proteins tested show evidence of breakdown; proteolytic activity (SDS-PAGE) [17]: None of the complement proteins tested show evidence of breakdown; proteolytic activity (SDS-PAGE) [18]: None of the complement proteins tested show evidence of breakdown
